Data from patent US20190248900A1 (Y BIOLOGICS, published 2019).

Assays:
Test in all cases: ELISA
RAET1E = molecular target: T1, RAET1E (Homo sapiens (Human), UniProt Q8TD07 31-225)
T1 sequence: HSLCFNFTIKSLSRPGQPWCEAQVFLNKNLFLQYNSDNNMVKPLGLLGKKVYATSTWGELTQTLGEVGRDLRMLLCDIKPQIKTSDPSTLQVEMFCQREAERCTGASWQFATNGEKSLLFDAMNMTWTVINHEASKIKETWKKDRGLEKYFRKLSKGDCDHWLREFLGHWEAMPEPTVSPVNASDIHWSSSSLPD

DKK3 = DKK3 (Homo sapiens (Human), UniProt Q9UBP4 22-350)
PLXDC1 = molecular target: T2, PLXDC1 (Homo sapiens (Human), UniProt Q8IUK5 19-426)
T2 sequence: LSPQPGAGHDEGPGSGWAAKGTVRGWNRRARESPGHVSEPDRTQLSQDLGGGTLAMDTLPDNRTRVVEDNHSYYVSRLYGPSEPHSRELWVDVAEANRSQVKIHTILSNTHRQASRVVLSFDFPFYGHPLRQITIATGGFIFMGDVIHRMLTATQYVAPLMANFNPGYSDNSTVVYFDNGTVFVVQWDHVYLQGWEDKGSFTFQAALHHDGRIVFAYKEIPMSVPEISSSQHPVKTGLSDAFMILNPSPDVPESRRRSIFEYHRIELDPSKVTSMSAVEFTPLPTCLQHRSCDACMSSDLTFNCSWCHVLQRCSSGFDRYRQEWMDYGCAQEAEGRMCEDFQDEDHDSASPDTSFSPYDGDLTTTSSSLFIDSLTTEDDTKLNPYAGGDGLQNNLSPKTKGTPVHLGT

SOST = molecular target: T3, SOST (Homo sapiens (Human), UniProt Q9BQB4 24-213)
T3 sequence: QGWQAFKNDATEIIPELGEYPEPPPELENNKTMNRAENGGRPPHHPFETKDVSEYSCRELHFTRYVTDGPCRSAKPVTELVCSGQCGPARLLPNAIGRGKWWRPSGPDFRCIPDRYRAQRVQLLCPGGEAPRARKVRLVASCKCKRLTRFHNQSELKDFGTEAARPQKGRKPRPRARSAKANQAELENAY

CFC1 = CFC1 (Homo sapiens (Human), UniProt P0CG37 26-158)
Sequence of CFC1 (P0CG37 26-158 limits assumed): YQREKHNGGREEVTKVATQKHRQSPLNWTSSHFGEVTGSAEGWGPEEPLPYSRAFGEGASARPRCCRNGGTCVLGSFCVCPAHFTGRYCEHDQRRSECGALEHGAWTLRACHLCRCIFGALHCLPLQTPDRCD

RTN4RL1 = molecular target: T4, RTN4RL1 (Homo sapiens (Human), UniProt Q86UN2 25-420)
T4 sequence: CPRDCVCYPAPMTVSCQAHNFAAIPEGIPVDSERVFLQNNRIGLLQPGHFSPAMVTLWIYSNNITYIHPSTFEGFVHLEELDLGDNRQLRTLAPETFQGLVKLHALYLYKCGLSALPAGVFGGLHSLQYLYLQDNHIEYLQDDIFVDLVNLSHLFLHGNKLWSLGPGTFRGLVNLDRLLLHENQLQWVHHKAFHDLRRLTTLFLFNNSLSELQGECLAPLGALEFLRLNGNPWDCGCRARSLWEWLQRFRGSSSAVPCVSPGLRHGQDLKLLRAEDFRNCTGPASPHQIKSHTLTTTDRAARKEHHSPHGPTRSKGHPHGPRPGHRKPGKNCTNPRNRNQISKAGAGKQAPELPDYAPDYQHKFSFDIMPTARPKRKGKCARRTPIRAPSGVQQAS

CREG1 = molecular target: T5, CREG1 (Homo sapiens (Human), UniProt O75629 32-220)
T5 sequence: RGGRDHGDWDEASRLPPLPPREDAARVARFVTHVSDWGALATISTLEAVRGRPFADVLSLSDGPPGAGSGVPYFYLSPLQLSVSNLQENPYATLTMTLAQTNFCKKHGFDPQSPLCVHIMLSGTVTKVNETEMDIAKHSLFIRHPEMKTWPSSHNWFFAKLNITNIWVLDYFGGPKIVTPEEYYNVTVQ

SLITRK2 = molecular target: T6, SLITRK2 (Homo sapiens (Human), UniProt Q9H156 22-621)
T6 sequence: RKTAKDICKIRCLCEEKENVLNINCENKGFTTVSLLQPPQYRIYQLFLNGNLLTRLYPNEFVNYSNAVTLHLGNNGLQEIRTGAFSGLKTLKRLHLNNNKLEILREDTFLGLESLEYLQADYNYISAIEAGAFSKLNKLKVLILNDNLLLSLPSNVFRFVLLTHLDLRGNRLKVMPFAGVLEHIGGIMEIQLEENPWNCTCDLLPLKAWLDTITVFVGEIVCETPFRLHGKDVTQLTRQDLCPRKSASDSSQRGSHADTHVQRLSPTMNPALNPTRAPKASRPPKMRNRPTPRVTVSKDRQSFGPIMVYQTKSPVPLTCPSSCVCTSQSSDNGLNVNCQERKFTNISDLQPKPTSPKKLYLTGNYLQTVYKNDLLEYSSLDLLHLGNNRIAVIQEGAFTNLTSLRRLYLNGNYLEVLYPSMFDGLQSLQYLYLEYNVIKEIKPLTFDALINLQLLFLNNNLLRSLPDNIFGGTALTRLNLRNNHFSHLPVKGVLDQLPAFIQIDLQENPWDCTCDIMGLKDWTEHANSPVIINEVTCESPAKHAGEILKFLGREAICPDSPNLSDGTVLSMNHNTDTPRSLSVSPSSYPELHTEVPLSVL

CD86 = molecular target: T7, CD86 (Homo sapiens (Human), UniProt P42081 24-247)
T7 sequence: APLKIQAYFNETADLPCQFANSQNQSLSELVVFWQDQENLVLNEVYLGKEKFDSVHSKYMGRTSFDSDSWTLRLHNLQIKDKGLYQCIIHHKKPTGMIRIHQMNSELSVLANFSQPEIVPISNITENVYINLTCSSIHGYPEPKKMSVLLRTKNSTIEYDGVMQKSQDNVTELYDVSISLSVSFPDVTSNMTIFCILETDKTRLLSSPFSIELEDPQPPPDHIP

Measured: binding result

Sequence of DKK3 (Q9UBP4 22-350 limits assumed): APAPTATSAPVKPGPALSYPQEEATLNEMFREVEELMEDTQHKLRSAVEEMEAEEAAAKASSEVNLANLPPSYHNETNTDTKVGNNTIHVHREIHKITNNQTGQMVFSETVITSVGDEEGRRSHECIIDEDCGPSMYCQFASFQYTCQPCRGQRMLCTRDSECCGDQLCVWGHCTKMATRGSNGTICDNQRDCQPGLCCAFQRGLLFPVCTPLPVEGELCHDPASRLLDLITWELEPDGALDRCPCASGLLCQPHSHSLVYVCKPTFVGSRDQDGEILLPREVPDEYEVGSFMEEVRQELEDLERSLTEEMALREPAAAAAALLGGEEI

B1: PD1-41C9 (antibody, V domains shown)
VH: QMQLVESGGGVVQPGRSLRLSCAASGFTFSSYAMHWVRQAPGKGLEWVAVISYDGSNKYYADSVKGRFTISRDNSKNTLYLQMNRLRSEDTAVYYCTTTTFDSWGQGTLITVSS
VL: DIVMTQTPLSLPVTPGEAASISCRSSQSLLDSEDGNTYLDWYLQKPGQSPQLLIYTLSHRASGVPDRFSGSGSGTDFTLKISRVAAEDVGLYYCLQRMGFPYTFGQGTKLDIK
notes: scFv-phage in the screening ELISA; whole IgG in the other assays
no binding (tested: 1 ug/ml): all assays above

B2: PD1-49A2 (antibody, V domains shown)
VH: QVQLVESGGGVVQPGRSLRLSCAASGFTFSSYAMHWVRQAPGKGLEWVAVISYDGSNKYYADSVKGRFTISRDNPKNTLYLQMNSLRAEDTAVYYCTTTTFDSWGRGTLVTVSS
VL: DIVMTQSPLSLPVTPGEPASISCRSSQSLFDSDDGNTYLDWYLQKPGQSPQLLIYTLSHRASGVPDRFSGSGSGTDFTLKISRVEAEDVGIYYCLQRMGFPYTFGQGTKVEIK
notes: scFv-phage in the screening ELISA; whole IgG in the other assays; also called Parent 49A2
no binding (tested: 1 ug/ml): all assays above

B3: PD1-45D6 (antibody, V domains shown)
VH: QVQLVESGGGVVQPGRSLRLSCAASGFTFSSYAMHWVRQVPGKGLEWVAVISYDGNDKYYADSVKGRFTISRDNSKNTLYLQMNSLRAEDTAVYYCVPTTFEYWGQGSQVTVSS
VL: DIVMTQTPLSLPVTPGEAASISCRSSQSLLDSDDGKTYLDWYLQKPGQSPQLLIYTLSYRASGVPDRFSGSGSGTEFNLRISRVEAEDVGIYYCMQRVEFPFTFGQGTKLDIK
notes: as for B1
no binding (tested: 1 ug/ml): all assays above
